{"source": "patent US5614198A", "about": "“Bowman-Birk Inhibitor compositions for treatment of inflammatory disease” (The Trustees of the University of Pennsylvania, priority 1995, dated 1997)", "key": {"[1]": {"test_system": "proteolytic activity in colon mucosa", "experiment": "proteolytic activity in colon mucosal biopsy samples of DMH-treated rats (MCA substrates)", "format": "in vivo, rat", "conditions": "for levels of proteolytic activity in colon mucosa of DMH-exposed animals: one month after last DMH dose, 0.1% dietary BBIC, FIG. 5; for Protease Activity/μg protein, Glt-Gly-Arg-MCA, Mean / Protease Activity/μg protein, Boc-Val-Leu-Lys-MCA, Mean / Protease Activity/μg protein, Boc-Val-Pro-Arg-MCA, Mean: rat colon biopsy one month after last DMH injection (total 80 mg/kg), 0.1% dietary inhibitor where given, 1 animal, 3 samples; for Protease Activity/μg protein, Glt-Gly-Arg-MCA, Mean: control 1.21; for Protease Activity/μg protein, Boc-Val-Leu-Lys-MCA, Mean: control 3.07; for Protease Activity/μg protein, Boc-Val-Pro-Arg-MCA, Mean: control 15.97", "description": "The levels of proteolytic activity were determined as following. Colon mucosal biopsy samples were thawed on ice and homogenized in ice-cold PBS in a sterile teflon-glass homogenizer. The level of proteolytic activity was measured by incubating aliquots of sample in 0.1M Tris (pH 7.5)-5 mM CaC12, with each of the following synthetic substrates: Boc-Val-Pro-Arg-MCA; Boc-Val-Leu-Lys-MCA; and Glt-Gly-Arg-MCA (Peninsula Laboratories, Inc., Belmont, Calif.). These substrates were selected since it is known that the proteolytic activity cleaving these substrates is affected by BBI. After a 2 hour incubation at 37° C., the reaction was terminated by dilution with 1.8 ml distilled H2 O. Release of the fluorescent reporter group, amino-methyl coumarin, was determined spectrophotometrically at excitation and emission wavelengths of 380 and 460 nm, respectively. […] Data were standardized on the basis of protein content and expressed as proteolytic activity/μg protein.\nIn these studies, animals were untreated or treated twice weekly for three weeks with DMH. […] One group of treated animals was also exposed to 0.1% dietary BBIC during and after the DMH injection period. Animals were killed one month after the last DMH injection was given. Colon biopsy samples were obtained and proteolytic activity levels were determined as described for the human mucosal biopsy samples."}, "trypsin": {"test_system": "trypsin", "experiment": "gelatin zymogram, trypsin control lanes", "format": "biochemical", "conditions": "10 μg/ml; 5 ng trypsin; lanes 4 and 6 vs lane 1", "experimental": "BBI or BBIC (at 10 μg/ml) was added to some of the biopsy sample homogenates and protease activity was analyzed on gelatin zymograms. The same rat colon sample from a 14 day DNBS/ethanol treated rat was used for the protease/zymogram analyses. The gel was run at 200 V for 40 minutes and was then cut into pieces. Each gel/column was treated as follows: 1) Control-contained 5 ng trypsin; 2) UC sample incubated in Tris at pH 8.0; 3) UC sample incubated in Tris at pH 8.0 with BBI added to achieve a final concentration of 10 μg/ml; 4) Control-contained 5 ng trypsin with BBI added to achieve a final concentration of 10 μg/ml; 5) UC sample incubated in Tris at pH 8.0 with BBIC added to achieve a final concentration of 10 μg/ml; 6) Control-contained 5 ng trypsin with BBIC added to achieve a final concentration of 10 μg/ml.\nTwelve percent sodium diodecyl sulfate (SDS) polyacrylamide gels of 0.75 mm thickness were prepared containing 0.1% gelatin. A 2% gelatin stock was prepared in advance by dissolving gelatin in warm distilled water. Samples were placed in the gel wells in standard SDS-gel-loading buffer that contained 0.1% SDS but lacked beta-mercaptoethanol. They were not boiled prior to loading. The gels were run at 200 V for 40 minutes in a Bio-Rad Mini Protean II apparatus and then soaked in distilled water containing 2% Triton X-100 on a gyrorotary shaker for 15 minutes at 20° C. […]"}, "C3H10T1/2 cells": {"test_system": "C3H10T1/2 cells", "conditions": "Yavelow et al., 1985; cited from earlier work"}, "[2]": {"test_system": "cells of patients with Bloom's syndrome", "conditions": "Kennedy et al., 1984; cited from earlier work"}, "[3]": {"test_system": "TPA-activated polymorphonuclear leukocytes (PMNs)", "conditions": "TPA-activated human PMNs (Frenkel et al.); cited from earlier work"}, "[4]": {"test_system": "DMH-induced colon and liver carcinogenesis", "conditions": "0.5% of the diet or less (St. Clair et al.); cited from earlier work"}}, "note": "Entries after “also recorded” stand apart in the source; their conditions may differ.", "data": [{"molecule": "CNNC", "note": "[DMH, dimethylhydrazine, reference compound]", "values": [{"measurement": "levels of proteolytic activity in colon mucosa of DMH-exposed animals", "setting": "[1]", "value": "highly significant elevation"}, {"measurement": "Protease Activity/μg protein, Glt-Gly-Arg-MCA, Mean", "setting": "[1]", "value": 6.15, "unit": "RFU/hr/Ag protein"}, {"measurement": "Protease Activity/μg protein, Boc-Val-Leu-Lys-MCA, Mean", "setting": "[1]", "value": 10.15, "unit": "RFU/hr/Ag protein"}, {"measurement": "Protease Activity/μg protein, Boc-Val-Pro-Arg-MCA, Mean", "setting": "[1]", "value": 43.43, "unit": "RFU/hr/Ag protein"}]}, {"molecule": "BBI: protease inhibitor derived from soybeans; 71 amino acid chain with 7 disulfide bonds, molecular weight approximately 8000 (protein, UniProt P01055 40-110, looked up) Bowman-Birk type proteinase …: DDESSKPCCDQCACTKSNPPQCRCSDMRLNSCHSACKSCICALSYPAQCFCVDITDFCYEPCKPSEDDKEN", "values": [{"measurement": "inhibition of proteolytic activity of trypsin", "setting": "trypsin", "value": "effectively inhibit the proteolytic activity of trypsin"}, {"measurement": "levels of proteolytic activity in colon mucosa of DMH-exposed animals", "setting": "[1]", "value": "not significantly different from control animals; also recorded: reduction in levels of these proteolytic activities"}, {"measurement": "Protease Activity/μg protein, Glt-Gly-Arg-MCA, Mean", "setting": "[1]", "value": 0.81, "unit": "RFU/hr/Ag protein"}, {"measurement": "Protease Activity/μg protein, Boc-Val-Leu-Lys-MCA, Mean", "setting": "[1]", "value": 1.96, "unit": "RFU/hr/Ag protein"}, {"measurement": "Protease Activity/μg protein, Boc-Val-Pro-Arg-MCA, Mean", "setting": "[1]", "value": 22.22, "unit": "RFU/hr/Ag protein"}, {"measurement": "radiation induced transformation in C3H10T1/2 cells", "setting": "C3H10T1/2 cells", "value": "suppresses radiation induced transformation in C3H10T1/2 cells"}, {"measurement": "levels of chromosome abnormalities", "setting": "[2]", "value": "reduce the levels of chromosome abnormalities"}, {"measurement": "order of activity, inhibition of H2O2 formation", "setting": "[3]", "value": "PtI-1≥PCI-2>PtI-2>COI>BBI>TOOI>LBI>SBTI"}, {"measurement": "effect upon the health of the mice", "setting": "[4]", "value": "no adverse effect upon the health of the mice"}]}, {"molecule": "COI: chicken ovoinhibitor (protein, UniProt P10184 1-517, looked up) Ovoinhibitor: MTDWVLHHKVGPLDMTTRYIFPLLPLPFLPHSESKRAVCAPRCSAMRTARQFVQVALALCCFADIAFGIEVNCSLYASGIGKDGTSWVACPRNLKPVCGTDGSTYSNECGICLYNREHGANVEKEYDGECRPKHVTIDCSPYLQVVRDGNTMVACPRILKPVCGSDSFTYDNECGICAYNAEHHTNISKLHDGECKLEIGSVDCSKYPSTVSKDGRTLVACPRILSPVCGTDGFTYDNECGICAHNAEQRTHVSKKHDGKCRQEIPEIDCDQYPTRKTTGGKLLVRCPRILLPVCGTDGFTYDNECGICAHNAQHGTEVKKSHDGRCKERSTPLDCTQYLSNTQNGEAITACPFILQEVCGTDGVTYSNDCSLCAHNIELGTSVAKKHDGRCREEVPELDCSKYKTSTLKDGRQVVACTMIYDPVCATNGVTYASECTLCAHNLEQRTNLGKRKNGRCEEDITKEHCREFQKVSPICTMEYVPHCGSDGVTYSNRCFFCNAYVQSNRTLNLVSMAAC", "values": [{"measurement": "order of activity, inhibition of H2O2 formation", "setting": "[3]", "value": "PtI-1≥PCI-2>PtI-2>COI>BBI>TOOI>LBI>SBTI"}]}, {"molecule": "SBTI: soybean (Kunitz) trypsin inhibitor (protein, UniProt P01070 25-205, looked up) Trypsin inhibitor A: DFVLDNEGNPLENGGTYYILSDITAFGGIRAAPTGNERCPLTVVQSRNELDKGIGTIISSPYRIRFIAEGHPLSLKFDSFAVIMLCVGIPTEWSVVEDLPEGPAVKIGENKDAMDGWFRLERVSDDEFNNYKLVFCPQQAEDDKCGDIGISIDHDDGTRRLVVSKNKPLVVQFQKLDKESL", "values": [{"measurement": "order of activity, inhibition of H2O2 formation", "setting": "[3]", "value": "PtI-1≥PCI-2>PtI-2>COI>BBI>TOOI>LBI>SBTI"}]}]}
